Source: PMC4091835

How the values were obtained:
[1] = target: Eps8–IRSp53 complex (BAR–SH3 FRET reporter saturated with Eps8) (human) (UniProt Q12929); test: other fluorescence titration
[2] = target: BAR–SH3 FRET reporter (IRSp53 construct BAR–SH3 S452C, labelled with fluorescein maleimide and rhodamine maleimide) (human); test: other fluorescence titration
[3] = target: IRSp53 construct BAR–SH3 (human); test: ITC
[4] = target: IRSp53 BAR–SH3 double mutant P278D P281D (human); test: ITC
[5] = target: Cdc42_(G12V)–IRSp53 complex (BAR–SH3 FRET reporter titrated first with GMP-PNP–Cdc42_(G12V)) (human) (UniProt P60953); test: other fluorescence titration

Chain of Human Eps8 (Q12929 whole entry): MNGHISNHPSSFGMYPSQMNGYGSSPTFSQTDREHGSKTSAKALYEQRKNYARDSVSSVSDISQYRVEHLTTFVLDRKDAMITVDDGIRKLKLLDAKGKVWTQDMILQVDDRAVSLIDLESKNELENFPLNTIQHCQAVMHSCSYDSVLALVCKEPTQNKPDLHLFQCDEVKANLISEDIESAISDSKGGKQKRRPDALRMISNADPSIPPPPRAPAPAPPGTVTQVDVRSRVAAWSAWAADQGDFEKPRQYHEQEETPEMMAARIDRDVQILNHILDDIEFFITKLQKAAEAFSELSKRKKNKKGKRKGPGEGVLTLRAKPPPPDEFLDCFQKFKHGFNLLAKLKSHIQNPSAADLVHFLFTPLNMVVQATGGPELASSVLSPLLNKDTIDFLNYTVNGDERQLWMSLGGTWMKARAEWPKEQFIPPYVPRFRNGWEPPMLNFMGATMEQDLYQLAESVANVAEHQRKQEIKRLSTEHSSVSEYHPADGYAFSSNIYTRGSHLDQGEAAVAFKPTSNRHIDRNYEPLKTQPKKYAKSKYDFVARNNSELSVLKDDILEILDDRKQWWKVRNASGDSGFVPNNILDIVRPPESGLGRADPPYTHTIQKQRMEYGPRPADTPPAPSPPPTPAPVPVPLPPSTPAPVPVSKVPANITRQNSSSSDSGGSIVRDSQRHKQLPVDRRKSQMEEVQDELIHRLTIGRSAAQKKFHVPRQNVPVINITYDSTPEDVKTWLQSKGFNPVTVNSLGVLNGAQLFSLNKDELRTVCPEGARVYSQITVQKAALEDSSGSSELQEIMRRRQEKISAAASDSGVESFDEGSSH

Kd [1] [µM]	Kd [2] [µM]	Kd [3] [µM]	Kd [4] [µM]	Kd [5] [µM]	Substance
10.7	2.4	4.7	10.7		Human Cdc42 residues 1–178, constitutively active mutant G12V (from UniProt P60953 1-178) (domain or fragment)
				1.1	Human Eps8 (from UniProt Q12929 1-822) (natural protein)
